Measured values taken from patent publication US20120093799A1, “RECOMBINANTLY MODIFIED PLASMIN” (priority 2007, published 2012).
Values joined by “and” are separate entries in the source; they are usually repeats but may differ in a detail not shown here. Equal entries are not always repeated.

T1: α2-antiplasmin (Homo sapiens, UniProt P08697)
T1 sequence (P08697 40-491): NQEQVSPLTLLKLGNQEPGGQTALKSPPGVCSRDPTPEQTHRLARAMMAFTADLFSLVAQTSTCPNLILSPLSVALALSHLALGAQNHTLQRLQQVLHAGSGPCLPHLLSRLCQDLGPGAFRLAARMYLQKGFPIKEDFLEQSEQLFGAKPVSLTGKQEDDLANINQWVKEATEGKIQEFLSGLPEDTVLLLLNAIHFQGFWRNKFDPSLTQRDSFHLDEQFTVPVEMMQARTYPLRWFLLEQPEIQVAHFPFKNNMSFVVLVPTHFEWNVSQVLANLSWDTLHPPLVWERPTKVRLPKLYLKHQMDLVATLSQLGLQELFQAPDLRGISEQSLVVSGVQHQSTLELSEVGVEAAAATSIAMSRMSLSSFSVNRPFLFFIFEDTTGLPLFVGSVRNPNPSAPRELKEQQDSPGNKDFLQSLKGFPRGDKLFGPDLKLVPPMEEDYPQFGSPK


Legend:
[1] = amidolytic activity with plasmin substrate S-2251, steady-state kinetics; assay type: biochemical; details: substrate S-2251, PBS buffer, pH 7.4, 25° C.; for kcat: for (TAL6003)-plasmin corrected for percent active sites
Description: The amidolytic activity of (TAL6003)-plasmin was examined using the plasmin substrate D-Val-Leu-Lys-p-nitroanilide (S-2251) (DiaPharma, West Chester, Ohio).
Correcting kcat for percent active sites, a kcat of about 725 min^−1 was determined. This value was very close to the value determined in the same assay for full-length plasmin, 820±23 min^−1 and for micro-plasmin (lacking all five kringles), 795±24 min^−1.

α2-antiplasmin [2] = target: T1, α2-antiplasmin; test: rate of inhibition by α2-antiplasmin (method of Wiman and Collen, S-2251 activity at time points); assay type: biochemical; details: 22° C. in PBS buffer, pH 7.4
Description: The rate of inhibition of (TAL6003)-plasmin by α2-antiplasmin was determined to be 1.8±0.06×10^7 M^−1 s^−1 using the method of Wiman and Collen (Wiman, B. and D. Collen, Eur. J. Biochem. 84: 573-578 (1978)) in which plasmin and α2-antiplasmin are mixed then assayed for S-2251 activity at specific time points (Table 3).
Literature values are taken from Anonick, et al., Thrombosis Res. 59: 449 (1990). All rates were measured according to the methods published in Anonick, et al.

[3] = binding to lysine-SEPHAROSE 4B column, elution with ε-ACA gradient
Description: FIG. 7 is a chromatogram showing binding of (TAL6003)-plasminogen to lysine-SEPHAROSE™ 4B: 0.5 mg of purified (TAL6003)-plasminogen was applied on the lysine-SEPHAROSE™ 4B column (1×3 cm) equilibrated with Tris-buffered saline, pH 7.4. Bound protein was eluted from the column by a 0-20 mM gradient of ε-aminocaproic acid (ε-ACA) as a single peak. The absorbance at 280 nm and the concentration of ε-ACA, as a function of the effluent volume are presented on the graph.
To confirm the functionality of kringle 1, we determined the binding of TAL6003-plasminogen to lysine-SEPHAROSE™ 4B.

[4] = binding of ε-ACA measured by changes in protein fluorescence; details: 50 mM Tris, 20 mM NaCl, pH 8.0, 25° C.; 0-50 μM ε-ACA
Description: To further confirm the functionality of kringle 1, the binding of ε-ACA to (TAL6003)-plasminogen was measured by monitoring the associated changes in protein fluorescence as described by Matsuka et al., Eur. J. Biochem. 190: 93-97 (1990) and Douglas et al., J. Biochemistry 41: 3302-3310 (2002), all incorporated herein by reference. Binding of ε-ACA to kringle 1 of (TAL6003)-plasminogen results in a decrease in fluorescence, likely due to quenching of the tryptophan residues which are part of the lysine-binding site.
To monitor this process, 4 μL to 16 μL aliquots of a concentrated solution of ε-ACA were added to 2 mL of 5 μM (TAL6003)-plasminogen in 50 mM Tris buffer containing 20 mM NaCl, pH 8.0, 25° C. The fluorescence was monitored at an excitation wavelength of 298 nm and an emission wavelength of 340 nm in a FLUOROMAX fluorescence spectrophotometer (Jobin Yvon, Inc., Edison, N.J.); after each addition of ε-ACA, the solution was allowed to equilibrate until no further changes in fluorescence were observed.
The resulting fluorescence values were corrected for dilution and plotted versus the concentration of ε-ACA over a range of 0-50 μM ε-ACA.

fibrin = fibrin binding microtiter plate assay (activation by tPA and resulting clot lysis)
Description: One property of plasminogen is its ability to bind fibrin. In order to determine whether (TAL6003)-plasminogen retains the ability to interact with fibrin, its fibrin-binding properties was tested in a microtiter plate assay in which binding of (TAL6003)-plasminogen to fibrin was assessed by its subsequent activation by tPA and resulting clot lysis. For this purpose, 100 μL of 5 mg/mL fibrinogen was polymerized with thrombin in each well of a microtiter plate. Various concentrations of (TAL6003)-plasminogen was added on top of the fibrin clots and incubated for 1 hour at 37° C. The plate was washed extensively with PBS while the fibrin clots are still intact and attached to the wells. After washing, a 0.1 mg/mL solution of tPA was added to each well and the plate was incubated 2 hours at 37° C. As a result, some of the clots were completely dissolved and some were partially dissolved, while wells with very low amounts of (TAL6003)-plasminogen and control wells remained practically intact. The degree of fibrinolysis was monitored by measuring the 280 nm absorbance of remainders of the initial clots reconstituted in 1 M NaOH. The absorbance values were plotted as a function of (TAL6003)-plasminogen concentration.

α2-antiplasmin [5] = target: T1, α2-antiplasmin; details: from Anonick et al., cited from earlier work

Row | ε-ACA concentration at elution peak from lysine-SEPHAROSE ([3]; 0-20 mM ε-ACA gradient, single peak) | binding to lysine-SEPHAROSE 4B ([3]; column equilibrated with Tris-buffered saline, pH 7.4) | Kd [4] [µM] | EC50 (fibrin; 1 hour at 37° C. on fibrin clots, then tPA 2 hours, read-out: C50 of fibrin binding) [µM] | Molecule | Km [1] [µM] | kcat [1] [s⁻¹] | rate of inhibition by α2-antiplasmin (α2-antiplasmin [2]) | fibrin binding affinity (fibrin; relative to full-length plasminogen) | kcat ([1]; listed as full-length plasmin) [s⁻¹] | rate of inhibition by α2-antiplasmin (literature value, table) (α2-antiplasmin [5]; 22° C. in PBS buffer, pH 7.4) | rate of inhibition by α2-antiplasmin (reported value, text) (α2-antiplasmin [5]; Thrombosis Res. 59: 449 (1990))
1 |  |  |  |  | mini-plasmin: activated mini-plasminogen; domain composition K5-SP (kringle 5 and serine protease domain) (protein) VAPPPVVLLPDVETPSEEDCMFGNGKGYRGKRATTVTGTPCQDWAAQEPHRHSIFTPETNPRAGLEKNYCRNPDGDVGGPWCYTTNPRKLYDYCDVPQCAAPSFDCGKPQVEPKKCPGRVVGGCVAHPHSWPWQVSLRTRFGMHFCGGTLISPEWVLTAAHCLEKSPRPSSYKVILGAHQEVNLEPHVQEIEVSRLFLEPTRKDIALLKLSSPAVITDKVIPACLPSPNYVVADRTECFITGWGETQGTFGAGLLKEAQLPVIENKVCNRYEFLNGRVQSTELCAGHLAGGTDSCQGDSGGPLVCFEKDKYILQGVTSWGLGCARPNKPGVYVRVSRFVTWIEGVMRNN | 160 ± 30 | 12.8 ± 1.17 | 2.4×10^5 M^−1 s^−1 and 2.4 ± 0.5 × 10^5 M^−1 s^−1 |  |  |  | 
2 | about 4 mM | bound to lysine-SEPHAROSE™ | ~19 | ~0.3 | (TAL6003)-plasminogen: recombinant plasminogen deletion mutant, single kringle plus serine protease domain, amino acid sequence SEQ ID NO: 2, expressed in E. coli (protein, Polypeptide having a single N-terminal kringle domain homologous to a kringle domain of a native human plasminogen) MRDVVLFEKKVYLSECKTGNGKNYRGTMSKTKNGITCQKWSSTSPHRPRFSPATHPSEGLEENYCRNPDNDPQGPWCYTTDPEKRYDYCDVPQCAAPSFDCGKPQVEPKKCPGRVVGGCVAHPHSWPWQVSLRTRFGMHFCGGTLISPEWVLTAAHCLEKSPRPSSYKVILGAHQEVNLEPHVQEIEVSRLFLEPTRKDIALLKLSSPAVITDKVIPACLPSPNYVVADRTECFITGWGETQGTFGAGLLKEAQLPVIENKVCNRYEFLNGRVQSTELCAGHLAGGTDSCQGDSGGPLVCFEKDKYILQGVTSWGLGCARPNKPGVYVRVSRFVTWIEGVMRNN |  |  |  | comparable to that of full-length plasminogen |  |  | 
3 |  |  |  |  | micro-plasmin: plasmin species lacking all five kringles (protein) APSFDCGKPQVEPKKCPGRVVGGCVAHPHSWPWQVSLRTRFGMHFCGGTLISPEWVLTAAHCLEKSPRPSSYKVILGAHQEVNLEPHVQEIEVSRLFLEPTRKDIALLKLSSPAVITDKVIPACLPSPNYVVADRTECFITGWGETQGTFGAGLLKEAQLPVIENKVCNRYEFLNGRVQSTELCAGHLAGGTDSCQGDSGGPLVCFEKDKYILQGVTSWGLGCARPNKPGVYVRVSRFVTWIEGVMRNN | 145 ± 13 | 13.2 ± 0.4 | 1.8 ± 0.2 × 10^5 M^−1 s^−1 |  |  |  | 
4 |  |  |  |  | plasmin: native full-length human plasmin with five kringle domains and serine protease domain (protein, UniProt P00747 20-580; P00747 581-810, looked up, plasmin, native full-length human plasmin with five kringle domains and serine protease domain) Plasmin heavy chain A: EPLDDYVNTQGASLFSVTKKQLGAGSIEECAAKCEEDEEFTCRAFQYHSKEQQCVIMAENRKSSIIIRMRDVVLFEKKVYLSECKTGNGKNYRGTMSKTKNGITCQKWSSTSPHRPRFSPATHPSEGLEENYCRNPDNDPQGPWCYTTDPEKRYDYCDILECEEECMHCSGENYDGKISKTMSGLECQAWDSQSPHAHGYIPSKFPNKNLKKNYCRNPDRELRPWCFTTDPNKRWELCDIPRCTTPPPSSGPTYQCLKGTGENYRGNVAVTVSGHTCQHWSAQTPHTHNRTPENFPCKNLDENYCRNPDGKRAPWCHTTNSQVRWEYCKIPSCDSSPVSTEQLAPTAPPELTPVVQDCYHGDGQSYRGTSSTTTTGKKCQSWSSMTPHRHQKTPENYPNAGLTMNYCRNPDADKGPWCFTTDPSVRWEYCNLKKCSGTEASVVAPPPVVLLPDVETPSEEDCMFGNGKGYRGKRATTVTGTPCQDWAAQEPHRHSIFTPETNPRAGLEKNYCRNPDGDVGGPWCYTTNPRKLYDYCDVPQCAAPSFDCGKPQVEPKKCPGR Plasmin light chain B: VVGGCVAHPHSWPWQVSLRTRFGMHFCGGTLISPEWVLTAAHCLEKSPRPSSYKVILGAHQEVNLEPHVQEIEVSRLFLEPTRKDIALLKLSSPAVITDKVIPACLPSPNYVVADRTECFITGWGETQGTFGAGLLKEAQLPVIENKVCNRYEFLNGRVQSTELCAGHLAGGTDSCQGDSGGPLVCFEKDKYILQGVTSWGLGCARPNKPGVYVRVSRFVTWIEGVMRNN | 220 ± 9 | 13.7 ± 0.383 |  |  | 13.7 ± 0.383 | 2.5 ± 0.5 × 10^7 M^−1 s^−1 | 2.5×10^7 M^−s^−1
